How the values were obtained:
SHP2-C SH2 = test: SH2 binding enrichment of the phosphorylated peptide, bacterial display (enrichment ratio); higher = better substrate or ligand; peptides without Tyr show the background
Grb2 SH2 = Grb2 SH2 (UniProt P62993); test: as above
c-Src SH2 = test: as above
AncSZ = test: phosphorylation enrichment, bacterial display (enrichment ratio); higher = better substrate or ligand; peptides without Tyr show the background
Fer (mouse) = test: as above
EPHB1 = EPHB1 (UniProt P54762); test: as above
Jak2 = Jak2 (UniProt O60674); test: as above
c-Src = test: as above
c-Abl (mouse) = test: as above
Hck = Hck (UniProt P08631); test: as above
FGFR3 = FGFR3 (UniProt P22607); test: as above
Fyn = Fyn (UniProt P06241); test: as above
EPHB2 = EPHB2 (UniProt P29323); test: as above
FGFR1 = FGFR1 (UniProt P11362); test: as above
Fes = Fes (UniProt P07332); test: as above
MERTK = MERTK (UniProt Q12866); test: as above
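Wherever SH2 binding enrichment of the phosphorylated peptide, bacterial display is given: peptide library displayed on the E. coli surface as eCPX fusions, selected cells deep-sequenced, score is each peptide's frequency after selection divided by its frequency in the input.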
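Wherever phosphorylation enrichment, bacterial display is given: 11-residue human phosphosite peptides and single-mutation variants displayed on the E. coli surface, counted by deep sequencing, each peptide's frequency after selection divided by its frequency in the unselected input library; frequency after pTyr selection over input frequency; kinase dosed for 20-30% of maximal phosphorylation in three min.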

Sequence of EPHB2 (P29323 whole entry, looked up): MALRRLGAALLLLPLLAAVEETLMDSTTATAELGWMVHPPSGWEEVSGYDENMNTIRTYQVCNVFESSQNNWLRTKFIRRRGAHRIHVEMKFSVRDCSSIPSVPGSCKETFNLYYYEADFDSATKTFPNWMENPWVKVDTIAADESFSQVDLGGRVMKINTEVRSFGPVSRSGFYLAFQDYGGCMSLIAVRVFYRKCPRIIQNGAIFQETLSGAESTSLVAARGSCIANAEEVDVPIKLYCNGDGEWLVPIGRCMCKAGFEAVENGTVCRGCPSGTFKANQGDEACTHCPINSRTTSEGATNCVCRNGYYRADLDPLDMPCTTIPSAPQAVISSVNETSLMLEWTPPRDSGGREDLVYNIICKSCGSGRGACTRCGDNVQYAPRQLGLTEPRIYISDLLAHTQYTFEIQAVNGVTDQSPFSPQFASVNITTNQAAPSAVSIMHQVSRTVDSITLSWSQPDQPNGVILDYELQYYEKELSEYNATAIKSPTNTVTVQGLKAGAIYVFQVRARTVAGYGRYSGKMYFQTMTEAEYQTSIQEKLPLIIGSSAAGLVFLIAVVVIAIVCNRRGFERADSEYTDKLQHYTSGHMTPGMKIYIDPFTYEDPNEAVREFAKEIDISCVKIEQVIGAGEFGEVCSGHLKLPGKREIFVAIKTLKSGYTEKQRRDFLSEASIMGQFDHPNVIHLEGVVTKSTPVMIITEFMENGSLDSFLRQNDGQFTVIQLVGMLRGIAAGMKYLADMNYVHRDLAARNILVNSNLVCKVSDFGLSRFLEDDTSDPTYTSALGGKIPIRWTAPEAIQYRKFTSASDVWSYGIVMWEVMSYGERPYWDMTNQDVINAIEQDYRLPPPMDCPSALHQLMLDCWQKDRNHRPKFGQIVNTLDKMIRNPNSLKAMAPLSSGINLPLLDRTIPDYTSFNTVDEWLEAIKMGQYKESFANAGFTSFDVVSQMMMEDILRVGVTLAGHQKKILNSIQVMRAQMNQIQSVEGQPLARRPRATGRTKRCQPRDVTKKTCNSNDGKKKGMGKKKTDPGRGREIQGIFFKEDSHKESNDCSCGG
Sequence of FGFR1 (P11362 whole entry, looked up): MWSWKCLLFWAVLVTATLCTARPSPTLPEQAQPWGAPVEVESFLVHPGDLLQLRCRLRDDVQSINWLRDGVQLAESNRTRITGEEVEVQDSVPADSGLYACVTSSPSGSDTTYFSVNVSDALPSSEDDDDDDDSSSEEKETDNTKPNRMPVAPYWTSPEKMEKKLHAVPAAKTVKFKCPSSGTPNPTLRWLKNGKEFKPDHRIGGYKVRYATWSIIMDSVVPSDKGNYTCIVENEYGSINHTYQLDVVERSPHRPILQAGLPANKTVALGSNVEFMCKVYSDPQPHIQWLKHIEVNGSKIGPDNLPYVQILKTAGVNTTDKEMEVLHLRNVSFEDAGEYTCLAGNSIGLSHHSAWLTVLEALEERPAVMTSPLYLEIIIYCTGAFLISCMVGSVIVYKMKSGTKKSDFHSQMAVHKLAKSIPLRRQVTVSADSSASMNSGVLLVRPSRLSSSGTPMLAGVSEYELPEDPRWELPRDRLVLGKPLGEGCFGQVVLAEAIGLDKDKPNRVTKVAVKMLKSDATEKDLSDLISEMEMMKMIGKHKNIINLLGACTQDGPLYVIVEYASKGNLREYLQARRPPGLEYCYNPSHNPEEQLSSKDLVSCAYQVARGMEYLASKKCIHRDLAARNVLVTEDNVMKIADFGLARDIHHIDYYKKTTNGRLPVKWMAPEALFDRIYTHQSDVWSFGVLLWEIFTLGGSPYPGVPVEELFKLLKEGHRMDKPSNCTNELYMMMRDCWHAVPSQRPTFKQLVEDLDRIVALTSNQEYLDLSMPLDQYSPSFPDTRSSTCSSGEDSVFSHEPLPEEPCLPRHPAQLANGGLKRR
Sequence of FGFR3 (P22607 whole entry, looked up): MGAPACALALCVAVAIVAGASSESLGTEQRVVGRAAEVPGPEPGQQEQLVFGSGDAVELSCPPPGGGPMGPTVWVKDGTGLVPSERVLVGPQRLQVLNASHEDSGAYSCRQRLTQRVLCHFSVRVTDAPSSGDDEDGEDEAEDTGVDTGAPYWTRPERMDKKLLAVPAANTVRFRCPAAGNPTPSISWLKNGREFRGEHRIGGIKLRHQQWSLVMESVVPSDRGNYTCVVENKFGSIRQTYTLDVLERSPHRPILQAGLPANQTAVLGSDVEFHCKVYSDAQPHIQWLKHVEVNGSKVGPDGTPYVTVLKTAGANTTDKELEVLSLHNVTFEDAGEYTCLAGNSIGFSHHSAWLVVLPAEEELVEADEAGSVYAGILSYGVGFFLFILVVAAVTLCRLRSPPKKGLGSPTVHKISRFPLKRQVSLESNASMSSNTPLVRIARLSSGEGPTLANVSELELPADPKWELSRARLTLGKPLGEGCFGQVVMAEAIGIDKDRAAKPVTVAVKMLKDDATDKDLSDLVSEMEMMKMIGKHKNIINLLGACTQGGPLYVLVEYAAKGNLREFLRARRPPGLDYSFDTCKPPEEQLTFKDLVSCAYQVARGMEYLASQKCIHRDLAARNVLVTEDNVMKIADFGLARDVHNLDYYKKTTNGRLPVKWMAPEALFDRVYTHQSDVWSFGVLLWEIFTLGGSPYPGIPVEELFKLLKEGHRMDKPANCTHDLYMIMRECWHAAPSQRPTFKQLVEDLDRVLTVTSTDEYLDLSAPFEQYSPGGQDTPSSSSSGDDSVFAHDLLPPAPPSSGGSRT
Sequence of Grb2 SH2 (P62993 whole entry, looked up): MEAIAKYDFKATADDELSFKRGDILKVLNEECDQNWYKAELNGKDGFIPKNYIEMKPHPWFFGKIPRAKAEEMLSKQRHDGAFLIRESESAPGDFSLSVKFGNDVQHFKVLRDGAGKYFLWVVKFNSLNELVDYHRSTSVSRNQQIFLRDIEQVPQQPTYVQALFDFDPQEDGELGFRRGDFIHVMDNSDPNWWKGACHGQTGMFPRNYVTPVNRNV
Sequence of Hck (P08631 whole entry, looked up): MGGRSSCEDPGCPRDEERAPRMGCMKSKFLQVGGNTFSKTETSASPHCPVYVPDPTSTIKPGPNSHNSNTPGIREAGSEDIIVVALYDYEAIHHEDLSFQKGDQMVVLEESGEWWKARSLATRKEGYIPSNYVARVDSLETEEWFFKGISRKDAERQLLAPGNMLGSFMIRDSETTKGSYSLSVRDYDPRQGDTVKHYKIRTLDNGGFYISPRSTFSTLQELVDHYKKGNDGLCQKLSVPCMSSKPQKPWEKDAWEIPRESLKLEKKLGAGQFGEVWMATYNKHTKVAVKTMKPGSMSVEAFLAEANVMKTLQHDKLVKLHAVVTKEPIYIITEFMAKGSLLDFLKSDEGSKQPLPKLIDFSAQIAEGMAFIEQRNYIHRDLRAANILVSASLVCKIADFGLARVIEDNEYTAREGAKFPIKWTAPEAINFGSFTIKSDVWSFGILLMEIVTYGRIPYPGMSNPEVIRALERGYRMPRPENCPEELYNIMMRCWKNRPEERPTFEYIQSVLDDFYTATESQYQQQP
Sequence of MERTK (Q12866 whole entry, looked up, the tested form may be a part): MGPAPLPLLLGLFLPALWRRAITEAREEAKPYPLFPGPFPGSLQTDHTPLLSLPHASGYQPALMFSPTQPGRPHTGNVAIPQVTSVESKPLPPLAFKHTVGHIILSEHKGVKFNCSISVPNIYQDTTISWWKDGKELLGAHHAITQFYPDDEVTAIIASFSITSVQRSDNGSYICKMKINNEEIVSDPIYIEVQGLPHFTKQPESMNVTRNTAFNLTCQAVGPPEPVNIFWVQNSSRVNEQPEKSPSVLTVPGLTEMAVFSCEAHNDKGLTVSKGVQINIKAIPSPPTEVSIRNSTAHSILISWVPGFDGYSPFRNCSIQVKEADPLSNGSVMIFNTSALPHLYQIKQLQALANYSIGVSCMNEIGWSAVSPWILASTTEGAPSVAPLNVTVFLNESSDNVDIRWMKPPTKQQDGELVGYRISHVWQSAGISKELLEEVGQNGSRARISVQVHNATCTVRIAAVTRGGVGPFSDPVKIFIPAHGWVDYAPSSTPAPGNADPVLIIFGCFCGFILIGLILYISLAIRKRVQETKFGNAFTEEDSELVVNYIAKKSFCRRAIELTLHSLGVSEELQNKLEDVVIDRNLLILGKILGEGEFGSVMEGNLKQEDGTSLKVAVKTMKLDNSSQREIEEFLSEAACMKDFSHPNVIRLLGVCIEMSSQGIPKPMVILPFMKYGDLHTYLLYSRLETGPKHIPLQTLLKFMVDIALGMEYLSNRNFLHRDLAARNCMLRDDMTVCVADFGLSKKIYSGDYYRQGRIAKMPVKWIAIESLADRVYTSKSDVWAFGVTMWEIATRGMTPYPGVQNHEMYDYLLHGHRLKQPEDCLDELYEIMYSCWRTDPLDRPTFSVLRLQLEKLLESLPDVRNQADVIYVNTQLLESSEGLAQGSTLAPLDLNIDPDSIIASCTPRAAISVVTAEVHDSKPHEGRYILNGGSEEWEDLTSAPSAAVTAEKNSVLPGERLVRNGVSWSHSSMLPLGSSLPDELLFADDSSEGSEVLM
Sequence of Fyn (P06241 whole entry, looked up): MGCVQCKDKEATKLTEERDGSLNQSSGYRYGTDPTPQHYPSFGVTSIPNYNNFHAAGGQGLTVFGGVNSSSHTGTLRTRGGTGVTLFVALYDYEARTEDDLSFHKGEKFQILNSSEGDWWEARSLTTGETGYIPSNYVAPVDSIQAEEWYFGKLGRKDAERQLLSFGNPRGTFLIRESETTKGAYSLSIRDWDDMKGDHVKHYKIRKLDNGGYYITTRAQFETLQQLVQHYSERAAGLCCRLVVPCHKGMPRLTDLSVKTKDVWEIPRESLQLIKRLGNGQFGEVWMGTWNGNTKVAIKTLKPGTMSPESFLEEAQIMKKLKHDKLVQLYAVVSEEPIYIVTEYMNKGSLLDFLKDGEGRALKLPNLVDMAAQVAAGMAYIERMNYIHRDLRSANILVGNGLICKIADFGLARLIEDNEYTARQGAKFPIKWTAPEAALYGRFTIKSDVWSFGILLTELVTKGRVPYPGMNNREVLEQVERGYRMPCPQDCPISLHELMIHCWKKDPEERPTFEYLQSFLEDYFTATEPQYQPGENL

Sequence | SH2 binding enrichment (SHP2-C SH2) | SH2 binding enrichment (Grb2 SH2) | SH2 binding enrichment (c-Src SH2) | phosphorylation enrichment (AncSZ) | phosphorylation enrichment (Fer (mouse)) | phosphorylation enrichment (EPHB1) | phosphorylation enrichment (Jak2) | phosphorylation enrichment (c-Src) | phosphorylation enrichment (c-Abl (mouse)) | phosphorylation enrichment (Hck) | phosphorylation enrichment (FGFR3) | phosphorylation enrichment (Fyn) | phosphorylation enrichment (EPHB2) | phosphorylation enrichment (FGFR1) | phosphorylation enrichment (Fes) | phosphorylation enrichment (MERTK)
MKDLTYASLCF [ALOX5_Y446] | 0.737 | 0.912 | 0.411 | 1.09 | 1.71 | 2.65 | 1.01 | 5.59 | 1.78 | 5.35 | 0.946 | 6.75 | 2.07 | 0.901 | 1.33 | 3.15
YLQEIYNSNNQ [FGG_Y140] | 0.77 | 0.679 | 0.51 | 0.918 | 0.512 | 0.617 | 0.998 | 1.84 | 0.692 | 1.54 | 0.606 | 1.59 | 0.561 | 0.436 | 1.23 | 0.441
VVKTVYSLQPS [KNSTRN_Y87_P92S] | 0.981 | 0.651 | 0.482 | 0.648 | 0.485 | 0.671 | 0.715 | 2.05 | 0.716 | 0.688 | 0.561 | 1.73 | 0.455 | 0.52 | 0.848 | 1.42
GLALRCLSDHS [VWF_Y1584_Y1584C] | 0.654 | 0.815 | 0.41 | 0.86 | 0.518 | 0.592 | 0.961 | 0.503 | 0.718 | 0.59 | 0.711 | 0.515 | 0.559 | 0.551 | 1.16 | 0.422
DEDEEYEFMNR [ERBB3_Y1197_YF] | 1.28 | 1.04 | 0.664 | 1.26 | 0.487 | 0.503 | 0.965 | 0.456 | 0.692 | 0.579 | 0.788 | 0.592 | 0.515 | 0.724 | 1.17 | 0.538
PMQLPYDSTWE [PDGFRB_Y589] | 1.47 | 0.673 | 1.17 | 0.975 | 0.575 | 0.533 | 1.24 | 1.1 | 1.12 | 0.554 | 0.646 | 0.561 | 0.399 | 0.438 | 1.69 | 0.573
VVKTVYSLQPP [KNSTRN_Y87] | 1.03 | 0.803 | 0.441 | 0.862 | 0.387 | 0.571 | 0.681 | 2.46 | 0.777 | 1.17 | 0.525 | 2.59 | 0.45 | 0.458 | 0.817 | 2.61
MSNSAYVKREV [SCN1A_Y1694_F1692S] | 0.753 | 0.838 | 0.454 | 0.563 | 0.37 | 0.407 | 0.437 | 0.335 | 0.442 | 0.399 | 0.46 | 0.402 | 0.415 | 0.45 | 0.562 | 0.381
YSIAQYCCRMG [LRRK2_Y2023_G2019S] | 1.18 | 1.14 | 2.36 | 1.24 | 1.23 | 1.98 | 0.574 | 0.79 | 5.03 | 0.911 | 0.64 | 0.895 | 12 | 0.987 | 0.708 | 8.37
ISKKRYAGLLF [POLD1_Y809] | 0.653 | 0.695 | 0.449 | 0.539 | 0.307 | 0.415 | 0.658 | 0.462 | 0.52 | 0.519 | 0.467 | 0.448 | 0.471 | 0.57 | 0.507 | 0.466
YADGVYQALEE [DUOX2_Y70] | 0.623 | 0.806 | 0.765 | 1.71 | 1.55 | 2.83 | 1.11 | 4.45 | 2.69 | 3.86 | 0.809 | 4.15 | 2.82 | 0.751 | 1.38 | 1.91
TIMTDYNPNFC [ALK_Y1092_YF] | 0.674 | 0.999 | 0.633 | 0.858 | 0.373 | 0.498 | 0.795 | 0.545 | 0.783 | 0.47 | 0.549 | 0.499 | 0.491 | 0.533 | 0.917 | 0.395
SRGSSYNSIPK [FLNC_Y2625_S2626N] | 0.657 | 0.818 | 0.559 | 0.53 | 0.328 | 0.417 | 0.587 | 0.486 | 0.524 | 0.286 | 0.383 | 0.297 | 0.356 | 0.33 | 0.642 | 0.525
SVNCTYSPALN [TP53_Y126_T123N] | 0.544 | 0.722 | 0.381 | 0.957 | 0.521 | 0.654 | 0.77 | 0.849 | 0.622 | 0.851 | 0.725 | 0.735 | 0.613 | 0.484 | 1.01 | 0.478
TPRNTYKMTSV [MKI67_Y849_L854V] | 0.525 | 0.844 | 0.452 | 0.657 | 0.343 | 0.518 | 0.513 | 0.502 | 0.584 | 0.458 | 0.474 | 0.425 | 0.468 | 0.482 | 0.558 | 0.445
TINPIHEHVGY [CHN1_Y143_Y143H] | 0.87 | 0.823 | 0.58 | 0.679 | 0.757 | 0.674 | 0.864 | 0.423 | 0.57 | 0.474 | 0.414 | 0.377 | 0.433 | 0.426 | 0.727 | 0.446
DEGVNHFMSKG [FBXO8_Y156_Y156H] | 0.778 | 0.718 | 0.464 | 0.61 | 0.357 | 0.433 | 0.42 | 0.297 | 0.516 | 0.364 | 0.504 | 0.443 | 0.424 | 0.436 | 0.64 | 0.324
KMKGDYFCFLA [YWHAG_Y130_R132C_YF] | 0.7 | 0.854 | 0.668 | 2.31 | 0.548 | 2.48 | 6.97 | 2.94 | 2.24 | 1 | 9.56 | 2.13 | 1.56 | 11.9 | 1.18 | 2.32
RLLVFYPWTQR [HBB_Y36_V35F] | 2.1 | 2.4 | 1.8 | 2.05 | 0.65 | 0.794 | 1.73 | 0.509 | 1.02 | 0.557 | 0.891 | 0.616 | 0.938 | 0.877 | 1.47 | 0.512
AMCVCYDGVEV [ADAMTSL2_Y594_R593C] | 0.589 | 0.736 | 0.815 | 1.42 | 1.41 | 0.585 | 1.03 | 1.02 | 0.816 | 0.655 | 0.882 | 0.68 | 0.589 | 0.511 | 1.31 | 0.41
SQSKGYRPKLY [SIPA1L3_Y1376_G1371S] | 0.662 | 0.701 | 0.447 | 0.719 | 0.364 | 0.336 | 0.496 | 0.408 | 0.519 | 0.361 | 0.33 | 0.344 | 0.337 | 0.424 | 0.651 | 0.51
PQGVRYTYTID [DCX_Y103_I104T] | 3.15 | 0.779 | 1.55 | 1.05 | 0.499 | 0.702 | 1.05 | 0.634 | 0.605 | 0.601 | 0.784 | 0.587 | 0.495 | 0.57 | 1.36 | 0.338
DDEVFYSPRSL [OTC_Y317] | 0.647 | 0.774 | 0.47 | 1.67 | 1.57 | 0.597 | 1.36 | 0.87 | 1.22 | 2 | 0.847 | 0.574 | 0.597 | 0.504 | 1.36 | 0.592
KMKGEYFRFLA [YWHAG_Y130_D129E_YF] | 1.3 | 1.63 | 1.24 | 0.791 | 0.7 | 0.678 | 2.04 | 2.76 | 1.4 | 0.783 | 2.58 | 1.75 | 0.567 | 3.77 | 0.93 | 0.598
PKGIRYGQGAG [CSRP3_Y73_G72R] | 0.867 | 0.984 | 0.484 | 0.532 | 0.349 | 0.502 | 0.521 | 0.585 | 0.927 | 0.587 | 0.453 | 0.411 | 0.375 | 0.339 | 0.504 | 0.9
MEFLPYGSLRD [JAK2_Y934_YF] | 0.574 | 0.798 | 0.573 | 0.857 | 0.832 | 0.571 | 0.798 | 2.6 | 0.692 | 2.29 | 0.615 | 1.64 | 0.451 | 0.441 | 1.56 | 0.388
VLSIDYYFPPQ [AR_Y552_P549S] | 1.55 | 1.47 | 1.34 | 6.35 | 0.605 | 3.13 | 6.81 | 2.17 | 1.24 | 0.881 | 10.8 | 1.03 | 3.2 | 13.3 | 1.09 | 3.5
SIKDKYVTALY [KCNH2_Y611] | 0.581 | 0.747 | 0.437 | 0.639 | 0.389 | 0.463 | 0.597 | 0.575 | 0.507 | 0.785 | 0.472 | 0.489 | 0.403 | 0.387 | 0.72 | 0.506
EERNTYVNTTL [TEK_Y1102_K1100N] | 1.22 | 20.6 | 1.45 | 0.694 | 0.404 | 0.955 | 0.551 | 0.43 | 0.638 | 0.53 | 0.454 | 0.446 | 0.531 | 0.515 | 0.83 | 0.675

Source: the supplement of paper PMC10065799, “High-throughput profiling of sequence recognition by tyrosine kinases and SH2 domains using bacterial peptide display” (eLife, 2023)
